According to patent US20170335016A1 (Kyowa Kirin, published 2017):

target: T1, human-CD28-Fc fusion protein (human, UniProt P10747 19-152); assay: ELISA, human-CD28-Fc coated at 1 µg/mL, culture supernatant, anti-human κ HRP detection
T1 construct: also called Fc fusion protein of the human-CD28 extracellular domain with IgG; hECD28-Fc
Procedure: The human-CD4O-Fc fusion protein and the human-CD28-Fc fusion protein were adjusted to give a concentration of 1 μg/mL using coating buffer (50 mM carbonate buffer, pH 9). To a well, 50 μL/well of the obtained human-CD4O-Fc fusion prostein or the obtained human-CD28-Fc fusion protein was added into the Maxisorp Plate (manufactured by Nalge Nunc International) respectively, and incubated at 4° C. overnight to be immobilized. Then, 200 μL/well of blocking reagent (SuperBlock (registered trademark) Blocking Buffer, manufactured by Pierce Protein Research) was added to the well, followed by incubation at room temperature for 30 minutes for blocking. Then, 50 μL/well of the culture supernatant comprising each antibody obtained in above Examples was added to the well followed by incubation at room temperature for 1 hour. After washing three times with Washing buffer (0.1% Tween20-TBS), Affinity Isolated Antibody HRP Conjugated Goat F(ab)₂ anti-Human κ (manufactured by EY Laboratories Inc) was diluted with assay diluent (0.1% Tween20-TBS containing Block Ace manufactured by Dainippon Sumitomo Pharma Co. Ltd. by 10%). Then, 50 μL of the obtained solution was added to each well followed by incubation at a room temperature for 1 hour. After washing three times with washing buffer, 50 μL of TMB (manufactured by Dako) coloring substrate solution was added to each well, followed by incubation in a dark room at room temperature. After developping color, 0.5 M vitriol (50 μL/well) was added to stop the reaction. The absorbance at the wavelength of 450 nm was measured with a microplate reader (SPECTRAMAX190, manufactured by Molecular Devices Inc).

T1 sequence (P10747 19-152): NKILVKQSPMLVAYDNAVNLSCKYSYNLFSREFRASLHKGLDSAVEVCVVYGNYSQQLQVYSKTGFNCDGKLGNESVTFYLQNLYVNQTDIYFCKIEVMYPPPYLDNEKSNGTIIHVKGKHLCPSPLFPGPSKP

| Binder | binding result |
| --- | --- |
| DVD341VL34-341 (bispecific antibody, human IgG2, kappa, Comparison molecule with a short linker, after Wu et al. Entries probably still carry signal peptides; Tested as culture supernatant) heavy: EVQLVESGGGLVKPGGSLRLSCGGSGFTFNNAWMNWVRQAPGKGLEWVGRIKGKTDGGTADYAAPVKGRFTISRDYSKNTLYLQMNSLTTEDTAVYYCNTDLPYYYGSGRYSGMDVWGQGTTVTVSSASTKGPQVQLQQSGPGLVKPSQTLSLTCAISGDSVSSNSATWNWIRQSPSRDLEWLGRTYYRSKWYRDYVGSVKSRIIINPDTSNNQFSLQLNSVTPEDTAIYYCTRAQWLGGDYPYYYSMDVWGQGTTVTVSSASTKGPSVFPLAPCSRSTSESTAALGCLVKDYFPEPVTVSWNSGALTSGVHTFPAVLQSSGLYSLSSVVTVPSSNFGTQTYTCNVDHKPSNTKVDKTVERKCCVECPPCPAPPVAGPSVFLFPPKPKDTLMISRTPEVTCVVVDVSHEDPEVQFNWYVDGVEVHNAKTKPREEQFNSTFRVVSVLTVVHQDWLNGKEYKCKVSNKGLPASIEKTISKTKGQPREPQVYTLPPSREEMTKNQVSLTCLVKGFYPSDIAVEWESNGQPENNYKTTPPMLDSDGSFFLYSKLTVDKSRWQQGNVFSCSVMHEALHNHYTQKSLSLSPGK light: not shown | binds |
| DVD341VL36-341 (bispecific antibody, human IgG2, kappa, Comparison molecule with a short linker, after Wu et al. Entries probably still carry signal peptides; Tested as culture supernatant) heavy: EVQLVESGGGLVKPGGSLRLSCGGSGFTFNNAWMNWVRQAPGKGLEWVGRIKGKTDGGTADYAAPVKGRFTISRDYSKNTLYLQMNSLKTEDTGVYYCTTYLPYYYGSERWSGMDVWGQGTTVTVSSASTKGPQVQLQQSGPGLVKPSQTLSLTCAISGDSVSSNSATWNWIRQSPSRDLEWLGRTYYRSKWYRDYVGSVKSRIIINPDTSNNQFSLQLNSVTPEDTAIYYCTRAQWLGGDYPYYYSMDVWGQGTTVTVSSASTKGPSVFPLAPCSRSTSESTAALGCLVKDYFPEPVTVSWNSGALTSGVHTFPAVLQSSGLYSLSSVVTVPSSNFGTQTYTCNVDHKPSNTKVDKTVERKCCVECPPCPAPPVAGPSVFLFPPKPKDTLMISRTPEVTCVVVDVSHEDPEVQFNWYVDGVEVHNAKTKPREEQFNSTFRVVSVLTVVHQDWLNGKEYKCKVSNKGLPASIEKTISKTKGQPREPQVYTLPPSREEMTKNQVSLTCLVKGFYPSDIAVEWESNGQPENNYKTTPPMLDSDGSFFLYSKLTVDKSRWQQGNVFSCSVMHEALHNHYTQKSLSLSPGK light: not shown | binds |
| multivalent antibody 341VL34-CH1-341 (bispecific antibody, Anti-CD28 site N-terminal, anti-CD40 site C-terminal; Tested as culture supernatant; not shown: human immunoglobulin kappa light chain constant region) heavy: EVQLVESGGGLVKPGGSLRLSCGGSGFTFNNAWMNWVRQAPGKGLEWVGRIKGKTDGGTADYAAPVKGRFTISRDYSKNTLYLQMNSLTTEDTAVYYCNTDLPYYYGSGRYSGMDVWGQGTTVTVSSASTKGPSVFPLAPCSRSTSESTAALGCLVKDYFPEPVTVSWNSGALTSGVHTFPAVLQSSGLYSLSSVVTVPSSNFGTQTYTCNVDHKPSNTKVDKTVGSQVQLQQSGPGLVKPSQTLSLTCAISGDSVSSNSATWNWIRQSPSRDLEWLGRTYYRSKWYRDYVGSVKSRIIINPDTSNNQFSLQLNSVTPEDTAIYYCTRAQWLGGDYPYYYSMDVWGQGTTVTVSSASTKGPSVFPLAPCSRSTSESTAALGCLVKDYFPEPVTVSWNSGALTSGVHTFPAVLQSSGLYSLSSVVTVPSSNFGTQTYTCNVDHKPSNTKVDKTVERKCCVECPPCPAPPVAGPSVFLFPPKPKDTLMISRTPEVTCVVVDVSHEDPEVQFNWYVDGVEVHNAKTKPREEQFNSTFRVVSVLTVVHQDWLNGKEYKCKVSNKGLPASIEKTISKTKGQPREPQVYTLPPSREEMTKNQVSLTCLVKGFYPSDIAVEWESNGQPENNYKTTPPMLDSDGSFFLYSKLTVDKSRWQQGNVFSCSVMHEALHNHYTQKSLSLSPGK light: EIVLTQSPATLSLSPGERATLSCRASQSVSSYLAWYQQKPGQAPRLLIYDASNRATGIPARFSGSGSGTDFTLTISSLEPEDFAVYYCQQRSNTFGPGTKVDIK | binds |
| multivalent antibody 341-CH1-341VL34 (bispecific antibody, Anti-CD40 site N-terminal, anti-CD28 site C-terminal; Tested as culture supernatant; not shown: human immunoglobulin kappa light chain constant region) heavy: QVQLQQSGPGLVKPSQTLSLTCAISGDSVSSNSATWNWIRQSPSRDLEWLGRTYYRSKWYRDYVGSVKSRIIINPDTSNNQFSLQLNSVTPEDTAIYYCTRAQWLGGDYPYYYSMDVWGQGTTVTVSSASTKGPSVFPLAPCSRSTSESTAALGCLVKDYFPEPVTVSWNSGALTSGVHTFPAVLQSSGLYSLSSVVTVPSSNFGTQTYTCNVDHKPSNTKVDKTVGSEVQLVESGGGLVKPGGSLRLSCGGSGFTFNNAWMNWVRQAPGKGLEWVGRIKGKTDGGTADYAAPVKGRFTISRDYSKNTLYLQMNSLTTEDTAVYYCNTDLPYYYGSGRYSGMDVWGQGTTVTVSSASTKGPSVFPLAPCSRSTSESTAALGCLVKDYFPEPVTVSWNSGALTSGVHTFPAVLQSSGLYSLSSVVTVPSSNFGTQTYTCNVDHKPSNTKVDKTVERKCCVECPPCPAPPVAGPSVFLFPPKPKDTLMISRTPEVTCVVVDVSHEDPEVQFNWYVDGVEVHNAKTKPREEQFNSTFRVVSVLTVVHQDWLNGKEYKCKVSNKGLPASIEKTISKTKGQPREPQVYTLPPSREEMTKNQVSLTCLVKGFYPSDIAVEWESNGQPENNYKTTPPMLDSDGSFFLYSKLTVDKSRWQQGNVFSCSVMHEALHNHYTQKSLSLSPGK light: EIVLTQSPATLSLSPGERATLSCRASQSVSSYLAWYQQKPGQAPRLLIYDASNRATGIPARFSGSGSGTDFTLTISSLEPEDFAVYYCQQRSNTFGPGTKVDIK | binds |

Continued, values first:

| binding result | Binder |
| --- | --- |
| no binding | anti-CD40 antibody 341-1-19 (antibody, IgG2, V domains shown, IgG2; Tested as culture supernatant; also called antibody produced by hybridoma KM341-1-19; not shown: human immunoglobulin kappa light chain constant region; kappa inferred from the anti-human κ detecti) VH: QVQLQQSGPGLVKPSQTLSLTCAISGDSVSSNSATWNWIRQSPSRDLEWLGRTYYRSKWYRDYVGSVKSRIIINPDTSNNQFSLQLNSVTPEDTAIYYCTRAQWLGGDYPYYYSMDVWGQGTTVTVSS VL: EIVLTQSPATLSLSPGERATLSCRASQSVSSYLAWYQQKPGQAPRLLIYDASNRATGIPARFSGSGSGTDFTLTISSLEPEDFAVYYCQQRSNTFGPGTKVDIK |
| binds | multivalent antibody 341VL36-CH1-H-CH2-CH3-341-CH1 (bispecific antibody, Entry probably still carries the signal peptide; Tested as culture supernatant; not shown: human immunoglobulin kappa light chain constant region) heavy: EVQLVESGGGLVKPGGSLRLSCGGSGFTFNNAWMNWVRQAPGKGLEWVGRIKGKTDGGTADYAAPVKGRFTISRDYSKNTLYLQMNSLKTEDTGVYYCTTYLPYYYGSERWSGMDVWGQGTTVTVSSASTKGPSVFPLAPCSRSTSESTAALGCLVKDYFPEPVTVSWNSGALTSGVHTFPAVLQSSGLYSLSSVVTVPSSNFGTQTYTCNVDHKPSNTKVDKTVERKCCVECPPCPAPPVAGPSVFLFPPKPKDTLMISRTPEVTCVVVDVSHEDPEVQFNWYVDGVEVHNAKTKPREEQFNSTFRVVSVLTVVHQDWLNGKEYKCKVSNKGLPASIEKTISKTKGQPREPQVYTLPPSREEMTKNQVSLTCLVKGFYPSDIAVEWESNGQPENNYKTTPPMLDSDGSFFLYSKLTVDKSRWQQGNVFSCSVMHEALHNHYTQKSLSLSPGKGSQVQLQQSGPGLVKPSQTLSLTCAISGDSVSSNSATWNWIRQSPSRDLEWLGRTYYRSKWYRDYVGSVKSRIIINPDTSNNQFSLQLNSVTPEDTAIYYCTRAQWLGGDYPYYYSMDVWGQGTTVTVSSASTKGPSVFPLAPCSRSTSESTAALGCLVKDYFPEPVTVSWNSGALTSGVHTFPAVLQSSGLYSLSSVVTVPSSNFGTQTYTCNVDHKPSNTKVDKTV light: EIVLTQSPATLSLSPGERATLSCRASQSVSSYLAWYQQKPGQAPRLLIYDASNRATGIPARFSGSGSGTDFTLTISSLEPEDFAVYYCQQRSNTFGPGTKVDIK |
| binds | multivalent antibody 341-CH1-341VL36 (bispecific antibody, Anti-CD40 site N-terminal, anti-CD28 site C-terminal; Entry probably still carries the signal peptide; Tested as culture supernatant; not shown: human immunoglobulin kappa light chain constant region) heavy: QVQLQQSGPGLVKPSQTLSLTCAISGDSVSSNSATWNWIRQSPSRDLEWLGRTYYRSKWYRDYVGSVKSRIIINPDTSNNQFSLQLNSVTPEDTAIYYCTRAQWLGGDYPYYYSMDVWGQGTTVTVSSASTKGPSVFPLAPCSRSTSESTAALGCLVKDYFPEPVTVSWNSGALTSGVHTFPAVLQSSGLYSLSSVVTVPSSNFGTQTYTCNVDHKPSNTKVDKTVGSEVQLVESGGGLVKPGGSLRLSCGGSGFTFNNAWMNWVRQAPGKGLEWVGRIKGKTDGGTADYAAPVKGRFTISRDYSKNTLYLQMNSLKTEDTGVYYCTTYLPYYYGSERWSGMDVWGQGTTVTVSSASTKGPSVFPLAPCSRSTSESTAALGCLVKDYFPEPVTVSWNSGALTSGVHTFPAVLQSSGLYSLSSVVTVPSSNFGTQTYTCNVDHKPSNTKVDKTVERKCCVECPPCPAPPVAGPSVFLFPPKPKDTLMISRTPEVTCVVVDVSHEDPEVQFNWYVDGVEVHNAKTKPREEQFNSTFRVVSVLTVVHQDWLNGKEYKCKVSNKGLPASIEKTISKTKGQPREPQVYTLPPSREEMTKNQVSLTCLVKGFYPSDIAVEWESNGQPENNYKTTPPMLDSDGSFFLYSKLTVDKSRWQQGNVFSCSVMHEALHNHYTQKSLSLSPGK light: EIVLTQSPATLSLSPGERATLSCRASQSVSSYLAWYQQKPGQAPRLLIYDASNRATGIPARFSGSGSGTDFTLTISSLEPEDFAVYYCQQRSNTFGPGTKVDIK |
| binds | multivalent antibody 341VL36-CH1-341 (bispecific antibody, Anti-CD28 site N-terminal, anti-CD40 site C-terminal; Entry probably still carries the signal peptide; Tested as culture supernatant; not shown: human immunoglobulin kappa light chain constant region) heavy: EVQLVESGGGLVKPGGSLRLSCGGSGFTFNNAWMNWVRQAPGKGLEWVGRIKGKTDGGTADYAAPVKGRFTISRDYSKNTLYLQMNSLKTEDTGVYYCTTYLPYYYGSERWSGMDVWGQGTTVTVSSASTKGPSVFPLAPCSRSTSESTAALGCLVKDYFPEPVTVSWNSGALTSGVHTFPAVLQSSGLYSLSSVVTVPSSNFGTQTYTCNVDHKPSNTKVDKTVGSQVQLQQSGPGLVKPSQTLSLTCAISGDSVSSNSATWNWIRQSPSRDLEWLGRTYYRSKWYRDYVGSVKSRIIINPDTSNNQFSLQLNSVTPEDTAIYYCTRAQWLGGDYPYYYSMDVWGQGTTVTVSSASTKGPSVFPLAPCSRSTSESTAALGCLVKDYFPEPVTVSWNSGALTSGVHTFPAVLQSSGLYSLSSVVTVPSSNFGTQTYTCNVDHKPSNTKVDKTVERKCCVECPPCPAPPVAGPSVFLFPPKPKDTLMISRTPEVTCVVVDVSHEDPEVQFNWYVDGVEVHNAKTKPREEQFNSTFRVVSVLTVVHQDWLNGKEYKCKVSNKGLPASIEKTISKTKGQPREPQVYTLPPSREEMTKNQVSLTCLVKGFYPSDIAVEWESNGQPENNYKTTPPMLDSDGSFFLYSKLTVDKSRWQQGNVFSCSVMHEALHNHYTQKSLSLSPGK light: EIVLTQSPATLSLSPGERATLSCRASQSVSSYLAWYQQKPGQAPRLLIYDASNRATGIPARFSGSGSGTDFTLTISSLEPEDFAVYYCQQRSNTFGPGTKVDIK |
